Experimental findings from patent publication US20220193195A1, “LYMPHOTOXIN ALPHA FOR USE IN THERAPY OF MYELOID LEUKEMIA” (Klinikum Rechts der Isar der Technischen Universität München, priority 2019, published 2022) are described below.

The test system of data set [1] is AML primary human samples. Description: Primary AML bone marrow samples treated in vitro for 7 days (Lin- cells, LSC, CD99- HSPC). Type of data set: cell-based. The following applies: for cell death of AML cells (blasts, LSCs), comparison between treatments: 7-day treatment of AML primary human samples. The source says:
Primary and secondary AML samples were obtained from patients enrolled in the clinical trial AMLCG-2008 (http://clinicaltrial.gov identifier NCT01382147), the AML register protocol of the AML Register and Biomaterial Database of the German Leukemia Study Alliance, the AML register protocol of the German AML Cooperative Group Version 2.0 from Jan. 6, 2011, the AML register protocol of the German AML study group, or treated at the III. Medical Department at the Technical University of Munich after approval of the local ethics committee (approval no. 62/16 S from Feb. 10, 2016 to 2790/10 from Apr. 30, 2010). Informed consent was obtained from patients at study entry.
To examine how targeting TNF/ LT-α signaling can be most effectively used to treat AML, the inventors treated AML primary human samples in vitro. LT-α and a-TNF (Adalimumab) were evaluated, alone or in combination. Moreover, LT-α was tested in combination with the standard AML chemotherapeutic Cytarabine (CYT), the clinical SMAC mimetic Birinapant, and the clinical pan-caspase inhibitor Emricasan. Drug concentrations were determined after titration in healthy bone marrow samples and AML cell lines (data not shown). After 7-day-treatment, cell viability was evaluated, using CD99 to discriminate between non-leukaemogenic HSPCs (CD99^−) and LSCs (FIG. 4c).

In data set [2] the test system is FLT3-ITD-transduced BM. Description: Colony forming cell assay (CFU-GEMM) of FLT3-ITD-transduced bone marrow. The class given is cell-based, mouse. The following applies: WT FLT3-ITD transduced cultures; rm LT-α 100 ng/ml, rm TNF 100 ng/ml, Etanercept 50 ng/ml; counted after 10 days; vs control. The protocol:
For colony forming cell assays, all duplicate cultures were performed in 35 mm petri dishes in murine methylcellulose medium (Methocult, Stem Cell Technologies). BM cells of unchallenged or 5-FUchallenged mice were plated in M3434. […] For analysis of colony forming units (CFU) cell viability, colonies were grown for 10 days in the presence of propidium iodide (PI) (0.8 μg/ml; Sigma) and representative CFU-GEMM were imaged using a Keyence BZ-9000 (Biorevo) fluorescence microscope.

The subject of data set [3] is AML cell lines. Description: Relative number of cells in AML cell lines after treatment (flow cytometry). Type of data set: cell-based, human. The following applies: panel of nine AML cell lines; 7 days; vs untreated cells. As for the experimental part: All centrifugation steps were performed at 400×g.
Data set [4] relates to WT FLT3-ITD mice (FLT3-ITD-driven myeloproliferative disorder).
Method: For treatment, two- and eight-weeks post transplantation animals were randomly divided into groups of eight. Mice were i.v. injected twice per week with either isotype control (5 mg/kg; RTK2071; Biolegend), Etanercept (Enbrel®, 50 ng/ml; Pfizer), rm LT-α (250 μg/kg; Cusabio), a-TNF (5 mg/kg; MP6-XT22; Biolegend), or rm LT-α plus a-TNF.
Mice with disease were sacrificed. Peripheral blood white blood cell counts (WBC) were measured by scil Vet abc (scil animal care company). Single-cell suspensions of indicated tissue samples were prepared and red blood cells of peripheral blood were lysed before analysis. Cells were pre-incubated with Fc-block and subsequently stained with fluorescently labeled antibodies. Dead cells were excluded by PI (Sigma) or Zombie Aqua™ Fixable Viability Kit (Biolegend) staining according to the manufacturer's instructions.
The test system of data set [5] is healthy BM.
Method: (§1) Human primary samples: Bone marrow mononuclear cells (BMMC) were isolated from heparinized bone marrow samples or bone chips by centrifugation over a Ficoll-Hypaque layer (Biochrom) of 1.077 g/ml density. Cells were harvested and used directly for immunephenotyping or cultured in IMDM (Gibco) supplemented with 20% fetal calf serum (FCS; PAN-Biotech), penicillin/streptomycin 0.05 mM, L-glutamine 2 mM, and 2-mercaptoethanol 0.05 mM (Gibco) on EL08-1D2 stromal cells.
(§2) For flow cytometry analysis after treatment, BM cells or AML cell lines were cultured as described above for 7 days in the presence of the following cytokines and inhibitors if indicated and not stated otherwise: Etanercept (Enbrel®; 50 ng/ml; Pfizer), recombinant human (rh) LT-α (100 ng/ml; R&D), rh TNF (100 ng/ml; R&D), Emricasan (2.5 nM; SelleckChem), Birinapant (10 nM; SelleckChem), Cytarabine (100 nM), a-LTα-Ig (10 μg/ml; 359-238-8; Biolegend), Adalimumab (Humira®; 500 ng/ml; Abbvie), and respective isotype controls Mouse IgG1, κ (MOPC-21; Biolegend), and Ultra-LEAF™ purified Human IgG1 (QA16A12; Biolegend).
(§3) Non-leukemia control samples were collected from individuals who underwent bone marrow aspiration for diagnostic purposes and in whom subsequently a hematological disease was ruled out. Healthy controls were isolated from the femoral heads of patients who underwent surgical hip replacement.
(§4) Antibodies used to separate human hematopoietic cell subsets, for immunephenotyping and intracellular protein expression analysis: Fluorescently labelled antibodies against Lineage Cocktail (Cat #348801; 348703), CD45RA (HI100), CD34 (581), CD38 (HB-7), CD99 (3B2/TA8), CD123 (5B11) were obtained from Biolegend. Flow analysis was performed on a BD FACS Canto II (BD Biosciences) and data were analyzed using FlowJo software (Tree Star).
Data set [6] has as its system K562. Description: Relative number of K562 CML cells after treatment. The conditions noted are these: alone or with imatinib 1 or 10 μM; vs untreated cells.
Method: As a model for CML, LT-α was tested for potential effects on the cell line K562, either separately against the standard therapy imatinib (in concentrations of 1 or 10 μM) alone, or in combination (FIG. 5).
The test system of data set [7] is healthy BM. Description: Hematopoietic cell subsets in healthy bone marrow treated with LT-α. The conditions noted are these: 100 ng/ml LT-α.
Method: as §1, §2, §3, §4
Where [8] appears, read: WT FLT3-ITD mice, treated twice per week.
[9] abbreviates: compared to controls, data not shown.

“Also recorded” adds a separate entry of the source.

For the molecule `C[C@H](NC(=O)C(=O)Nc1ccccc1C(C)(C)C)C(=O)N[C@@H](CC(=O)O)C(=O)COc1c(F)c(F)cc(F)c1F` [Emricasan, reference compound], in data set [1], the “cell death of AML cells (blasts, LSCs), comparison between treatments” value (from here on “cell death of AML cells (blasts, LSCs)”) was “resistant to LT-α- and Birinapant-induced cell death”.

As to Etanercept, in data set [2], the “number of GEMM colonies” value is “increase”. Besides, the “number of AML cells” value in data set [3] is on record as “not observed”. The “remission / disease outcome” value in data set [4] (setting [8]) was “rapidly succumbed to disease”. In addition, the Median survival in data set [4] (WT mice transplanted with FLT3-ITD-transduced WT BM, treated i.v. twice per week) worked out at 65 days. Also, in data set [4] (setting [9]), the WBC counts entry was “considerably elevated”, the hepato-splenomegaly entry is “increased”, the latency result is listed as “reduced” and the leukemic burden result is “elevated”. Moreover, the “number of primitive leukemic cells” value in data set [4] (setting [9]) is “drastically increased”.

For `CC[C@H](NC(=O)[C@H](C)NC)C(=O)N1C[C@@H](O)C[C@H]1Cc1c(-c2[nH]c3cc(F)ccc3c2C[C@@H]2C[C@H](O)CN2C(=O)[C@H](CC)NC(=O)[C@H](C)NC)[nH]c2cc(F)ccc12` [Birinapant, reference compound], the “cell death of AML cells (blasts, LSCs)” value in data set [1] was “better at promoting cell death, both of blasts and LSCs, than Cytarabine”.

On to adalimumab, for which, in data set [3], the “number of AML cells” value is “drastic reduction”.

B1: LT-α: Lymphotoxin alpha polypeptide (SEQ ID No. 1/2); recombinant mouse LT-α used in mouse tests, recombinant human LT-α in human cell tests (protein, UniProt P01374 35-205, looked up)
Lymphotoxin-alpha: LPGVGLTPSAAQTARQHPKMHLAHSTLKPAAHLIGDPSKQNSLLWRANTDRAFLQDGFSLSNNSLLVPTSGIYFVYSQVVFSGKAYSPKATSSPLYLAHEVQLFSSQYPFHVPLLSSQKMVYPGLQEPWLHSMYHGAAFQLTQGDQLSTHTDGIPHLVLSPSTVFFGAFAL
modifications: mouse LT-α also used
Turning to B1, the “number of GEMM colonies” value in data set [2] is reported as “significantly reduced”. In addition, the “number of AML cells” value in data set [3] is recorded as “significantly decreased”. The “cell death of AML cells (blasts, LSCs)” value in data set [1] is listed as “more effectively than the standard AML chemotherapeutic Cytarabine; also recorded: more efficient manner than a-TNF”. Also, in data set [1] (7-day treatment, a-TNF = Adalimumab), the “non-leukaemogenic HSPCs (CD99-)” value is given as “promoted expansion”. Besides, the “Lin- cells (bulk of AML blasts and healthy HSPCs)” value in data set [1] (7-day treatment, rh LT-α 100 ng/ml) is recorded as “killed”. In data set [1] (7-day treatment, rh LT-α 100 ng/ml, a-TNF = Adalimumab 500 ng/ml), the “LSCs in AML BM samples” value is “killed”. In addition, in data set [4] (WT FLT3-ITD mice, i.v. twice per week), the tolerability in vivo result was “well tolerated”. The “remission / disease outcome” value in data set [4] (setting [8]) was “induced durable remissions”. Moreover, the “LSCs in FLT3-ITD-transplanted mice” value in data set [4] (treated twice per week) was “eradicates LSCs”. In data set [5], the “toxicity to healthy controls / healthy cells” value is listed as “lacks any pronounced cytotoxicity”. The “effect on K562 cells (relative number of cells)” value in data set [6] is on record as “significant effects; also recorded: kills blast cells”. Moreover, the “toxic effect on healthy bone marrow” value in data set [7] (bone marrow samples from healthy control patients) is recorded as “not elicit any detectable toxic effect”. The “healthy haematopoiesis (HSCs and myeloid progenitor subsets)” value in data set [7] (healthy BM) is listed as “sustained”.
